Results reported in patent US20140193415A1.

Experiments:
[1] = target: human IGF-1R (soluble, analyte in SPR) (human) (UniProt P08069); assay: SPR (ProteOn XPR36), 25 C, Fab captured by anti-Fab; ratio against parental Ak18
[2] = target: human IGF-1R (soluble, analyte in SPR) (human) (UniProt P08069); assay: SPR (ProteOn XPR36), 25 C, Fab captured by anti-Fab, IGF-1R as analyte

Row | Binder | x-fold increase of binding affinity (=KD (unmodified AK18)/KD (CDR-modified)) [1] [fold] | Kd [2] [nM] | koff [2] [s⁻¹] | kon [2] [M⁻¹ s⁻¹]
1 | <IGF-1R> F13B5 Fab fragment (affinity-matured <IGF-1R> HUMAB-Clone 18) (Fab, V domains shown) VH: QVELVESGGGVVQPGRSQRLSCAASGFTFSSYGMHWVRQAPGKGLEWVAIIWFDGSSTYYADSVRGRFTISRDNSKNTLYLQMNSLRAEDTAVYFCARELGRRYFDLWGRGTLVSVSS VL: EIVLTQSPATLSLSPGERATLSCRASQSVSSYLAWYQQKPGQAPRLLIYQASKRATGIPARFSGSGSGTDFTLTISSLEPEDFAVYYCQQRSKYPPWTFGQGTKVESK | 12.4 | 1.47 | 0.00025 | 170000
2 | <IGF-1R> L37F7 Fab fragment (affinity-matured <IGF-1R> HUMAB-Clone 18) (Fab, V domains shown) VH: QVELVESGGGVVQPGRSQRLSCAASGFTFSSYGMHWVRQAPGKGLEWVAIIWFDGSSTYYADSVRGRFTISRDNSKNTLYLQMNSLRAEDTAVYFCARELGRRYFDLWGRGTLVSVSS VL: EIVLTQSPATLSLSPGERATLSCRASQSVSSQLAWYQQKPGQAPRLLIYKATNRATGIPARFSGSGSGTDFTLTISSLEPEDFAVYYCQQRSKYPPWTFGQGTKVESK | 17.9 | 1.02 | 0.000237 | 232000
3 | <IGF-1R> L31D7 Fab fragment (affinity-matured <IGF-1R> HUMAB-Clone 18) (Fab, V domains shown) VH: QVELVESGGGVVQPGRSQRLSCAASGFTFSSYGMHWVRQAPGKGLEWVAIIWFDGSSTYYADSVRGRFTISRDNSKNTLYLQMNSLRAEDTAVYFCARELGRRYFDLWGRGTLVSVSS VL: EIVLTQSPATLSLSPGERATLSCRASQSVIQSLAWYQQKPGQAPRLLIYRASKRATGIPARFSGSGSGTDFTLTISSLEPEDFAVYYCQQRSKWPPWTFGQGTKVESK | 17.8 | 1.03 | 0.000538 | 523000
4 | <IGF-1R> L39D7 Fab fragment (affinity-matured <IGF-1R> HUMAB-Clone 18) (Fab, V domains shown) VH: QVELVESGGGVVQPGRSQRLSCAASGFTFSSYGMHWVRQAPGKGLEWVAIIWFDGSSTYYADSVRGRFTISRDNSKNTLYLQMNSLRAEDTAVYFCARELGRRYFDLWGRGTLVSVSS VL: EIVLTQSPATLSLSPGERATLSCRASQSVSKQLAWYQQKPGQAPRLLIYNASKRATGIPARFSGSGSGTDFTLTISSLEPEDFAVYYCQQRSKYPPWTFGQGTKVESK | 23.8 | 0.769 | 0.00027 | 351000
5 | <IGF-1R> L31D11 Fab fragment (affinity-matured <IGF-1R> HUMAB-Clone 18) (Fab, V domains shown) VH: QVELVESGGGVVQPGRSQRLSCAASGFTFSSYGMHWVRQAPGKGLEWVAIIWFDGSSTYYADSVRGRFTISRDNSKNTLYLQMNSLRAEDTAVYFCARELGRRYFDLWGRGTLVSVSS VL: EIVLTQSPATLSLSPGERATLSCRASRSVYSSLAWYQQKPGQAPRLLIYKASSRATGIPARFSGSGSGTDFTLTISSLEPEDFAVYYCQQRSKWPPWTFGQGTKVESK | 68 | 0.269 | 0.000153 | 571000
